Legend:
CCR4 [1] = molecular target: T1, CCR4 (Homo sapiens, UniProt P51679); test: PathHunter eXpress CCR4 CHO-K1 β-Arrestin GPCR Assay, agonist format; assay type: cell-based
T1 construct: host or cells: CHO-K1
T1 sequence (P51679 1-360): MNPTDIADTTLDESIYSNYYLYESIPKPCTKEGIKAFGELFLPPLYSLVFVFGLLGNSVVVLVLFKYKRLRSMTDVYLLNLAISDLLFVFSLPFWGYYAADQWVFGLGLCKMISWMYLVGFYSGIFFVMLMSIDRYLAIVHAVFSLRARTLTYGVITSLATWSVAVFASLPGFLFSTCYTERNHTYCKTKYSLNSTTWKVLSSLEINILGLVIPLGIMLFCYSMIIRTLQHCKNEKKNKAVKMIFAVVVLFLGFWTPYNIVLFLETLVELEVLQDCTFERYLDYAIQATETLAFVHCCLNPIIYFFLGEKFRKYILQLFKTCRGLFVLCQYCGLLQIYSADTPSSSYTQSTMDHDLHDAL
Procedure: (§1) The aim of the present experiment was to analyze if if these peptides are functional using a Discoverx Assay, the Beta-Arrestin recruitment assay, to identify agonism or antagonism in the selected peptides.
(§2) Standard protocols used: • PathHunter® eXpress CCR4 CHO-K1 β-Arrestin GPCR Assay. 100 dp (1×96-well)
(§3) The experiment was carried using the manufacturer instructions.
The concentration was increased to test for response at high concentration.

CCR4 [2] = molecular target: T1, CCR4; test: PathHunter eXpress CCR4 CHO-K1 β-Arrestin GPCR Assay, antagonist format with CCL22; assay type: cell-based
Procedure: as §1, §2, §3
We therefore used the assay in an antagonist format, using 10 nM CCL22.
We repeated this experiment lowering the concentration of CCL22 from 10 nM to 1 nM to show a full inhibition curve.

## ACLNGCRNTNSQCA [24-11-00-N001, bicyclic peptide ligand, TATA scaffold, from CCR4 cell-based selection]
CCR4 [1]; 0.006 nM
  Raw Data: 24609
CCR4 [1]; 0.02 nM
  Raw Data: 24123
CCR4 [1]; 0.06 nM
  Raw Data: 27885
CCR4 [1]; 0.17 nM
  Raw Data: 25757
CCR4 [1]; 0.51 nM
  Raw Data: 27976
CCR4 [1]; 1.5 nM
  Raw Data: 27602
CCR4 [1]; 4.6 nM
  Raw Data: 26096
CCR4 [1]; 13.9 nM
  Raw Data: 22941
CCR4 [1]; 41.7 nM
  Raw Data: 22581
CCR4 [1]; 125 nM
  Raw Data: 22195
CCR4 [1]; 375 nM
  Raw Data: 19528
CCR4 [1]; high concentration, 0.001 uM
  Raw Data: 9494
CCR4 [1]; high concentration, 0.003 uM
  Raw Data: 10549
CCR4 [1]; high concentration, 0.008 uM
  Raw Data: 10183
CCR4 [1]; high concentration, 0.023 uM
  Raw Data: 11338
CCR4 [1]; high concentration, 0.1 uM
  Raw Data: 11394
CCR4 [1]; high concentration, 0.2 uM
  Raw Data: 12202
CCR4 [1]; high concentration, 0.6 uM
  Raw Data: 11009
CCR4 [1]; high concentration, 1.9 uM
  Raw Data: 11006
CCR4 [1]; high concentration, 5.6 uM
  Raw Data: 10444
CCR4 [1]; high concentration, 16.7 uM
  Raw Data: 10968
CCR4 [1]; high concentration, 50 uM
  Raw Data: 9993
CCR4 [2]; 1 nM CCL22, 0.001 uM
  Raw Data: 139740
CCR4 [2]; 1 nM CCL22, 0.003 uM
  Raw Data: 146107
CCR4 [2]; 1 nM CCL22, 0.008 uM
  Raw Data: 158208
CCR4 [2]; 1 nM CCL22, 0.023 uM
  Raw Data: 155622
CCR4 [2]; 1 nM CCL22, 0.1 uM
  Raw Data: 132431
CCR4 [2]; 1 nM CCL22, 0.2 uM
  Raw Data: 136037
CCR4 [2]; 1 nM CCL22, 0.6 uM
  Raw Data: 141369
CCR4 [2]; 1 nM CCL22, 1.9 uM
  Raw Data: 129872
CCR4 [2]; 1 nM CCL22, 5.6 uM
  Raw Data: 110179
CCR4 [2]; 1 nM CCL22, 16.7 uM
  Raw Data: 106271
CCR4 [2]; 1 nM CCL22, 50 uM
  Raw Data: 85131
CCR4 [2]; 10 nM CCL22
  IC80: 9.29 µM
CCR4 [2]; 10 nM CCL22, 0.001 uM
  Raw Data: 164482
CCR4 [2]; 10 nM CCL22, 0.003 uM
  Raw Data: 157449
CCR4 [2]; 10 nM CCL22, 0.008 uM
  Raw Data: 146640
CCR4 [2]; 10 nM CCL22, 0.023 uM
  Raw Data: 154833
CCR4 [2]; 10 nM CCL22, 0.1 uM
  Raw Data: 154951
CCR4 [2]; 10 nM CCL22, 0.2 uM
  Raw Data: 151383
CCR4 [2]; 10 nM CCL22, 0.6 uM
  Raw Data: 163219
CCR4 [2]; 10 nM CCL22, 1.9 uM
  Raw Data: 153353
CCR4 [2]; 10 nM CCL22, 5.6 uM
  Raw Data: 145586
CCR4 [2]; 10 nM CCL22, 16.7 uM
  Raw Data: 127180
CCR4 [2]; 10 nM CCL22, 50 uM
  Raw Data: 119853

## ACLSCARHGNQCA [24-12-00-N001, bicyclic peptide ligand, TATA scaffold, from CCR4 cell-based selection]
CCR4 [1]; 0.006 nM
  Raw Data: 31416
CCR4 [1]; 0.02 nM
  Raw Data: 30201
CCR4 [1]; 0.06 nM
  Raw Data: 30311
CCR4 [1]; 0.17 nM
  Raw Data: 27668
CCR4 [1]; 0.51 nM
  Raw Data: 34202
CCR4 [1]; 1.5 nM
  Raw Data: 31584
CCR4 [1]; 4.6 nM
  Raw Data: 28872
CCR4 [1]; 13.9 nM
  Raw Data: 27830
CCR4 [1]; 41.7 nM
  Raw Data: 26640
CCR4 [1]; 125 nM
  Raw Data: 25288
CCR4 [1]; 375 nM
  Raw Data: 22486
CCR4 [1]; high concentration, 0.001 uM
  Raw Data: 10679
CCR4 [1]; high concentration, 0.003 uM
  Raw Data: 11299
CCR4 [1]; high concentration, 0.008 uM
  Raw Data: 11106
CCR4 [1]; high concentration, 0.023 uM
  Raw Data: 12540
CCR4 [1]; high concentration, 0.1 uM
  Raw Data: 13063
CCR4 [1]; high concentration, 0.2 uM
  Raw Data: 13783
CCR4 [1]; high concentration, 0.6 uM
  Raw Data: 13041
CCR4 [1]; high concentration, 1.9 uM
  Raw Data: 13661
CCR4 [1]; high concentration, 5.6 uM
  Raw Data: 12922
CCR4 [1]; high concentration, 16.7 uM
  Raw Data: 12407
CCR4 [1]; high concentration, 50 uM
  Raw Data: 12457
CCR4 [2]; 1 nM CCL22, 0.001 uM
  Raw Data: 205771
CCR4 [2]; 1 nM CCL22, 0.003 uM
  Raw Data: 230925
CCR4 [2]; 1 nM CCL22, 0.008 uM
  Raw Data: 216507
CCR4 [2]; 1 nM CCL22, 0.023 uM
  Raw Data: 200429
CCR4 [2]; 1 nM CCL22, 0.1 uM
  Raw Data: 190863
CCR4 [2]; 1 nM CCL22, 0.2 uM
  Raw Data: 196279
CCR4 [2]; 1 nM CCL22, 0.6 uM
  Raw Data: 195159
CCR4 [2]; 1 nM CCL22, 1.9 uM
  Raw Data: 184486
CCR4 [2]; 1 nM CCL22, 5.6 uM
  Raw Data: 225342
CCR4 [2]; 1 nM CCL22, 16.7 uM
  Raw Data: 123432
CCR4 [2]; 1 nM CCL22, 50 uM
  Raw Data: 101311
CCR4 [2]; 10 nM CCL22, 0.001 uM
  Raw Data: 162386
CCR4 [2]; 10 nM CCL22, 0.003 uM
  Raw Data: 192263
CCR4 [2]; 10 nM CCL22, 0.008 uM
  Raw Data: 193071
CCR4 [2]; 10 nM CCL22, 0.023 uM
  Raw Data: 176223
CCR4 [2]; 10 nM CCL22, 0.1 uM
  Raw Data: 168443
CCR4 [2]; 10 nM CCL22, 0.2 uM
  Raw Data: 197817
CCR4 [2]; 10 nM CCL22, 0.6 uM
  Raw Data: 207362
CCR4 [2]; 10 nM CCL22, 1.9 uM
  Raw Data: 197426
CCR4 [2]; 10 nM CCL22, 5.6 uM
  Raw Data: 164381
CCR4 [2]; 10 nM CCL22, 16.7 uM
  Raw Data: 163675
CCR4 [2]; 10 nM CCL22, 50 uM
  Raw Data: 134429

## ACPLMSSVNCTAGCA [24-13-00-N001, bicyclic peptide ligand, TBMB scaffold, from CCR4 cell-based selection]
CCR4 [1]; 0.006 nM
  Raw Data: 27634
CCR4 [1]; 0.02 nM
  Raw Data: 30705
CCR4 [1]; 0.06 nM
  Raw Data: 30335
CCR4 [1]; 0.17 nM
  Raw Data: 31512
CCR4 [1]; 0.51 nM
  Raw Data: 31217
CCR4 [1]; 1.5 nM
  Raw Data: 34513
CCR4 [1]; 4.6 nM
  Raw Data: 29431
CCR4 [1]; 13.9 nM
  Raw Data: 24436
CCR4 [1]; 41.7 nM
  Raw Data: 23071
CCR4 [1]; 125 nM
  Raw Data: 22524
CCR4 [1]; 375 nM
  Raw Data: 20081
CCR4 [1]; high concentration, 0.001 uM
  Raw Data: 11252
CCR4 [1]; high concentration, 0.003 uM
  Raw Data: 11640
CCR4 [1]; high concentration, 0.008 uM
  Raw Data: 12612
CCR4 [1]; high concentration, 0.023 uM
  Raw Data: 12684
CCR4 [1]; high concentration, 0.1 uM
  Raw Data: 13168
CCR4 [1]; high concentration, 0.2 uM
  Raw Data: 13560
CCR4 [1]; high concentration, 0.6 uM
  Raw Data: 12989
CCR4 [1]; high concentration, 1.9 uM
  Raw Data: 12391
CCR4 [1]; high concentration, 5.6 uM
  Raw Data: 12460
CCR4 [1]; high concentration, 16.7 uM
  Raw Data: 12506
CCR4 [1]; high concentration, 50 uM
  Raw Data: 11512
CCR4 [2]; 1 nM CCL22, 0.001 uM
  Raw Data: 229814
CCR4 [2]; 1 nM CCL22, 0.003 uM
  Raw Data: 230497
CCR4 [2]; 1 nM CCL22, 0.008 uM
  Raw Data: 210841
CCR4 [2]; 1 nM CCL22, 0.023 uM
  Raw Data: 219415
CCR4 [2]; 1 nM CCL22, 0.1 uM
  Raw Data: 218869
CCR4 [2]; 1 nM CCL22, 0.2 uM
  Raw Data: 228712
CCR4 [2]; 1 nM CCL22, 0.6 uM
  Raw Data: 229977
CCR4 [2]; 1 nM CCL22, 1.9 uM
  Raw Data: 190843
CCR4 [2]; 1 nM CCL22, 5.6 uM
  Raw Data: 200574
CCR4 [2]; 1 nM CCL22, 16.7 uM
  Raw Data: 156536
CCR4 [2]; 1 nM CCL22, 50 uM
  Raw Data: 114497
CCR4 [2]; 10 nM CCL22, 0.001 uM
  Raw Data: 195228
CCR4 [2]; 10 nM CCL22, 0.003 uM
  Raw Data: 200825
CCR4 [2]; 10 nM CCL22, 0.008 uM
  Raw Data: 201223
CCR4 [2]; 10 nM CCL22, 0.023 uM
  Raw Data: 183445
CCR4 [2]; 10 nM CCL22, 0.1 uM
  Raw Data: 170995
CCR4 [2]; 10 nM CCL22, 0.2 uM
  Raw Data: 195355
CCR4 [2]; 10 nM CCL22, 0.6 uM
  Raw Data: 181254
CCR4 [2]; 10 nM CCL22, 1.9 uM
  Raw Data: 194535
CCR4 [2]; 10 nM CCL22, 5.6 uM
  Raw Data: 180947
CCR4 [2]; 10 nM CCL22, 16.7 uM
  Raw Data: 179127
CCR4 [2]; 10 nM CCL22, 50 uM
  Raw Data: 133745

Source: US11946041B2, “Modification of polypeptides” (BicycleRD Limited, priority 2017, dated 2024)
